Laboratory results as given in article PMC4368505 (Nature, 2015).

T1: Drosophila Orc3 (amino acid residues 47-721) of the trimmed ORC core (Drosophila, UniProt Q7K2L1 47-721)
T1 sequence (looked up): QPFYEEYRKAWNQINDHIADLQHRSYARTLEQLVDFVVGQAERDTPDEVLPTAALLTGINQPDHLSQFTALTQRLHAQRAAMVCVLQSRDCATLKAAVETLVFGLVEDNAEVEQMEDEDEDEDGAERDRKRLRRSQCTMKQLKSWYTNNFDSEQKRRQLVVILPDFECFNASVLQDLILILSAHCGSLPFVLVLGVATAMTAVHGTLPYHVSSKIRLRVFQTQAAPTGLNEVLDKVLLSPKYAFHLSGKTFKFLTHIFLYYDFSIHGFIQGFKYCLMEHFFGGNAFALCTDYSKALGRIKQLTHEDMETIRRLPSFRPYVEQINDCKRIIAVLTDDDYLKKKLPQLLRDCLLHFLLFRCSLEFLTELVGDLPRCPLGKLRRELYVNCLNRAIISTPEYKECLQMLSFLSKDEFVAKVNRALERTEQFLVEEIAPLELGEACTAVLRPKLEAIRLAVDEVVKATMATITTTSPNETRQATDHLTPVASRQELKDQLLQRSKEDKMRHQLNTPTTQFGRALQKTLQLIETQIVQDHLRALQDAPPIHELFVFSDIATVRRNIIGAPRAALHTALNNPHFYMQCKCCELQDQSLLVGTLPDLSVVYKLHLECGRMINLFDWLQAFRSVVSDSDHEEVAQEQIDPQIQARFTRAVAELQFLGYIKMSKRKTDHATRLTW

B1: Drosophila Orc1 (amino acid residues 533-924) of the trimmed ORC core (domain or fragment, UniProt O16810 533-924, looked up)
chain: SPSMQQRTDLPAKDSSKSELQLAREQLHVSVVPKSLPCREREFENIYAFLEGKIQDQCGGCMYVSGVPGTGKTATVTGVIRTLQRMAKQNELPAFEYLEINGMRLTEPRQAYVQIYKQLTGKTVSWEQAHALLEKRFTTPAPRRVTTVLLVDELDILCNRRQDVVYNLLDWPTKSAAKLVVVTIANTMDLPERLLMGKVTSRLGLTRLTFQPYSHKQLQEIVTARLGGSETFKGEAVQLVARKVAAVSGDARRALDICRRATEIADTAAVKCVTMLHVQQALAEMIASAKVQAIRNCSRMEQIFLQAIAAEVTRTGVEETTFMGVYQQVETIAAFMGVTFPPPGRALRLCSKLGAERLIISEHSRNDLFQKILLNVSADDIHYALRVEEMVN
B2: Drosophila Orc4 (amino acid residues 1-459) (natural protein, UniProt Q9W102 1-459, looked up)
chain: MPEADRELVSIRRFLKERLQRDYTTLRGYAKERSNVRLLLQRTAEMGESNSLLLLGPRGSGKTTLINSVLADLLPNKSFGENTLIVHLDGNLHTDDRVALKSITVQMQLENAADGKVFGSFAENLAFLLQCLKAGGKHSKSVIFILEEFDLFCAHHNQTLLYNLFDVSQSAQAPICVLGVTCRLDVIELLEKRVKSRFSHRQVFLFPSLRRFEDYVDLCRDLLSLPTGNSLLLAAEKIYNLQNIQSGALYFSRNHFDPGEYGFSPRLRDAWNKQICKVLATQQARSTLQALHDFDISEAYLKNFLFRLVAHLRPQSPHITAEKMAAVGSQFEGDDKIELLCGLSVLELCLIIAIKHHSQIYDRDSFNFEIIYARFSKFAKVSTTMQAVERSIVLKAFEHLRIAELIMPLTGGAGGGVGKVQKEFEMHKLALTYSQIHHCMQRYQALPTEVAQWAQSSLI
B3: Drosophila Orc5 (amino acid residues 1-460) (natural protein, UniProt Q24169 1-460, looked up)
chain: MEAICSSLEPLFPCREAAIETLGELIGDSSETYPSAIYLFGHSGTGKTALTRAFLKECGKRQNVRTAHLNAIECYTTKIMLEILLDSLAPDQGDALKVDNMLDFVEQLRRQAATRVEDQGFLIAVDNAERLRDMDANVLPVLLRLQELTNLNLCVILLSQLPFEKFYNKTGLSEIVCLHLAQYNKAETQRILGSDFQQVRNQLLEQFAQDKKRLEICQEAVTEDFYNNYLNLFLSVFYKACRDVPELQLTARKCLSTYLEPVLDGTVDATDISRLWRHIAGPLRSALTQIYMRIEKPAEEVEDFTAIEDQSVRKLAQSLELPYYAKFLLIAAFLASHNAAKQDKRLFVKHHGKQRKRMQTVNARAKTTEKMSTTLGPKSFSIDRLLAIFYAILEEKVGLTCNLLSQISTLVHLNLLSFVSGEQNIMEGSARLQCTIGLEFVLQIGKVVGFNVRQYLCDFM
B4: Drosophila Orc2 (amino acid residues 266-618) of the trimmed ORC core (domain or fragment, UniProt Q24168 266-618, looked up)
chain: QSARAKKSNEFVPESDGYFHSHASSKILTSDHTLDRLKNPRLAADRVFSLLSEIKTSAEHEGSINAIMEEYRSYFPKWMCILNEGFNILLYGLGSKHQLLQSFHREVLHKQTVLVVNGFFPSLTIKDMLDSITSDILDAGISPANPHEAVDMIEEEFALIPETHLFLIVHNLDGAMLRNVKAQAILSRLARIPNIHLLASIDHINTPLLWDQGKLCSFNFSWWDCTTMLPYTNETAFENSLLVQNSGELALSSMRSVFSSLTTNSRGIYMLIVKYQLKNKGNATYQGMPFRDLYSSCREAFLVSSDLALRAQLTEFLDHKLVKSKRSVDGSEQLTIPIDGALLQQFLEEQEKK

Tests used:
Experiment in all cases: crystal structure
[1] = biological target: B2
[2] = biological target: T1, Drosophila Orc3 (amino acid residues …)
[3] = biological target: B3
[4] = biological target: B1

## B1
[1]
  binding result: binds
[2]
  binding result: binds

## B2
[3]
  binding result: binds

## B3
[2]
  binding result: binds

## B4
[2]
  binding result: binds
[4]
  binding result: binds
